Test results taken from article PMC4626798 (Scientific Reports, 2015).
Several values for one entry are separate records, joined by “and”; a condition that tells them apart may be missing. Equal entries are not always repeated.

B2: 6 × His-Hal3^PD (domain or fragment, S. cerevisiae, UniProt P36024 256-495, looked up)
chain: RLPQDDGKLHVLFGATGSLSVFKIKPMIKKLEEIYGRDRISIQVILTQSATQFFEQRYTKKIIKSSEKLNKMSQYESTPATPVTPTPGQCNMAQVVELPPHIQLWTDQDEWDAWKQRTDPVLHIELRRWADILVVAPLTANTLSKIALGLCDNLLTSVIRAWNPSYPILLAPSMVSSTFNSMMTKKQLQTIKEEMSWVTVFKPSEKVMDINGDIGLGGMMDWNEIVNKIVMKLGGYPKNN
notes: Hal3 (Sis2), S. cerevisiae, PPCDC domain (PD); expected MW with tag 29.1 kDa; also called PPCDC domain of Hal3; source: E. coli BL21 (DE3), purified (Ni2+ IMAC); alone from pET28 or co-expressed with Cab3^PD (pETDuet-1); not shown: His6, N-terminal, kept
B3: 6 × His-Vhs3^PD (domain or fragment, S. cerevisiae, UniProt Q08438 288-577, looked up)
chain: DDGKLHVLFGATGSLSVFKLKHMIRKLEEIYGRDKICIQVILTNSATKFFAMKYMRKNKKQHNSIDTSFNSTNSNAGNITGNKKKVASLEKFSIQKTSSNSAASQTNNKQEEEKQMASTTGFPSTLGGSRTYSNSSNVVSQHPQIELPAHIQFWTDQDEWDVWRQRTDPVLHIELRRWADILVVAPLTANTLAKIALGLCDNLLTSVIRAWNPTFPIFLAPSMGSGTFNSIMTKKHFRIIQEEMPWVTVFKPSEKVMGINGDIGLSGMMDANEIVGKIVVKLGGYPDVSA
notes: Vhs3, S. cerevisiae, PPCDC domain (PD), residues 288–577; Expected MW with tag 34.5 kDa; also called PPCDC domain of Vhs3; source: E. coli BL21 (DE3), purified (Ni2+ IMAC); alone from pET28a or co-expressed with Cab3^PD (pETDuet-1); not shown: His6, N-terminal, kept

Key:
GST-Ppz1^Cter = biological target: T1, GST-Ppz1^Cter (S. cerevisiae, UniProt P26570 345-692); assay: pull-down; GST-Ppz1^Cter (~6 μg) bound to glutathione agarose beads, incubated with increasing amounts of Hal3 (0.5-fold to 6-fold excess) for 1 h at 24 °C; washed with 50 mM Tris-HCl pH 7.5, 150 mM NaCl, 10% glycerol, 2 mM DTT; SDS-PAGE, Coomassie, densitometry; conditions: both partners purified
T1 construct: Ser/Thr protein phosphatase Ppz1, S. cerevisiae, carboxyl terminal domain, Ppz1 (Δ1–344), expressed from pGEX6P1-Ppz1^Cter; also called Ppz1 (Δ1–344); Ppz1 carboxyl terminal domain
T1 sequence (looked up): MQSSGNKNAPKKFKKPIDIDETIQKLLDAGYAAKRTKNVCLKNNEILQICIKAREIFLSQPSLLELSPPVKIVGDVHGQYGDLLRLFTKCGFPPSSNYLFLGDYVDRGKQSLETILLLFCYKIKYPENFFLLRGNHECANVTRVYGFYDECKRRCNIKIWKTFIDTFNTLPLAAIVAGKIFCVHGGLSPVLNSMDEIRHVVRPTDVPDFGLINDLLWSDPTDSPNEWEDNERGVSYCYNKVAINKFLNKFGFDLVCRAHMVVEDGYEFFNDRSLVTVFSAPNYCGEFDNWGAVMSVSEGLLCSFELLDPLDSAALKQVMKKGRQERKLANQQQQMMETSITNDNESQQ

[1] = biological target: the molecule itself; assay: cross-linking; purified PD protein treated with disuccinimydyl suberate (DSS) at 37 °C (15 min Hal3^PD, 40 min Vhs3^PD), SDS-PAGE on 8% gels
[2] = biological target: the molecule itself; assay: SEC; purified PD proteins and co-purified mixtures on Superose 12, 50 mM phosphate pH 7.0, 150 mM NaCl, 0.4 mL/min
6 × His-Ppz1^Cter = biological target: T2, 6 × His-Ppz1^Cter (S. cerevisiae, UniProt P26570 345-692); assay: SEC; IMAC-purified Ppz1^Cter–Hal3 complex on Superdex 200 HR 10/30, 50 mM Tris-HCl pH 7.5, 270 mM NaCl, 2 mM DTT, 2 mM EDTA; fractions analysed by SDS-PAGE and densitometry; conditions: both partners purified
T2 construct: Ser/Thr protein phosphatase Ppz1, S. cerevisiae, carboxyl terminal domain (Ppz1^Cter, Δ1–344), first MCS of pETDuet-1; also called N-terminally 6 × His-tagged version of Ppz1^Cter; source: E. coli BL21 (DE3), co-expressed with Hal3 from pETDuet-1; purified as the complex (Ni2+ IMAC, SEC); not shown: His6, N-terminal, kept
T2 sequence (looked up): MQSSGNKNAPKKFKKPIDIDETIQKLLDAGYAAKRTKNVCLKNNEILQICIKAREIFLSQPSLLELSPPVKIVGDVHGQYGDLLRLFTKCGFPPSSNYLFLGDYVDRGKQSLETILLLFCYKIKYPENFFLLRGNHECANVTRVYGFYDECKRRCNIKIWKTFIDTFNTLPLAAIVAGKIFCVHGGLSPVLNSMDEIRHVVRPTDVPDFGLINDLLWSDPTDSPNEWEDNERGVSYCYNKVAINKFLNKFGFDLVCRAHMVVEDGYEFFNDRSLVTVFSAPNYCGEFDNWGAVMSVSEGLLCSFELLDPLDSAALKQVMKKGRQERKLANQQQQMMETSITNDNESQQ

6 × His-Vhs3^PD = biological target: B3; assay: co-purification by Ni2+ IMAC after co-expression; untagged Cab3^PD co-expressed in E. coli with 6 × His-tagged Hal3^PD and/or Vhs3^PD (binary and ternary mixtures); Ni2+ IMAC, SDS-PAGE and densitometry; conditions: partners not purified
6 × His-Hal3^PD = biological target: B2; assay: as above; conditions: partners not purified

B1: Hal3 (full length, obtained from GST-Hal3 by PreScission protease treatment) (natural protein, S. cerevisiae, UniProt P36024 1-562, looked up)
chain: MTAVASTSGKQDADHNQSIECPRFSRGQKEILLDHEDAKGKDSIINSPVSGRQSISPTLSNATTTTTKSIMNATGTSGAVVSNTPEPGLKRVPAVTFSDLKQQQKQDSLTQLKNDSERTKSPNSNPAPVSNSIPGNHAVIPNHTNTSRTTQLSGSPLVNEMKDYDPKKKDSALKIVDTMKPDKIMATSTPISRENNKVTAKAPTSITLRKEDAQDQANNVSGQINVRSTPEETPVKQSVIPSIIPKRENSKNLDPRLPQDDGKLHVLFGATGSLSVFKIKPMIKKLEEIYGRDRISIQVILTQSATQFFEQRYTKKIIKSSEKLNKMSQYESTPATPVTPTPGQCNMAQVVELPPHIQLWTDQDEWDAWKQRTDPVLHIELRRWADILVVAPLTANTLSKIALGLCDNLLTSVIRAWNPSYPILLAPSMVSSTFNSMMTKKQLQTIKEEMSWVTVFKPSEKVMDINGDIGLGGMMDWNEIVNKIVMKLGGYPKNNEEEDDDEDEEEDDDEEEDTEDKNENNNDDDDDDDDDDDDDDDDDDDDDDDDEDEDEAETPGIIDKHQ
notes: Hal3 (Sis2), S. cerevisiae, the entire protein, expressed from pGEX6P1-Hal3; also called Sis2; recombinant Hal3; source: E. coli BL21 (DE3), GST-Hal3 purified and digested with PreScission protease
maximal ratio of bound Hal3 to GST-Ppz1^Cter (GST-Ppz1^Cter): ~0.5

B2
stoichiometry N [1]: 3 | stoichiometry N [2]: 6 and 12

B3
stoichiometry N [1]: 3

B4: Hal3 (untagged, entire, co-expressed from pETDuet-1) (natural protein, S. cerevisiae, UniProt P36024 1-562, looked up)
chain: MTAVASTSGKQDADHNQSIECPRFSRGQKEILLDHEDAKGKDSIINSPVSGRQSISPTLSNATTTTTKSIMNATGTSGAVVSNTPEPGLKRVPAVTFSDLKQQQKQDSLTQLKNDSERTKSPNSNPAPVSNSIPGNHAVIPNHTNTSRTTQLSGSPLVNEMKDYDPKKKDSALKIVDTMKPDKIMATSTPISRENNKVTAKAPTSITLRKEDAQDQANNVSGQINVRSTPEETPVKQSVIPSIIPKRENSKNLDPRLPQDDGKLHVLFGATGSLSVFKIKPMIKKLEEIYGRDRISIQVILTQSATQFFEQRYTKKIIKSSEKLNKMSQYESTPATPVTPTPGQCNMAQVVELPPHIQLWTDQDEWDAWKQRTDPVLHIELRRWADILVVAPLTANTLSKIALGLCDNLLTSVIRAWNPSYPILLAPSMVSSTFNSMMTKKQLQTIKEEMSWVTVFKPSEKVMDINGDIGLGGMMDWNEIVNKIVMKLGGYPKNNEEEDDDEDEEEDDDEEEDTEDKNENNNDDDDDDDDDDDDDDDDDDDDDDDDEDEDEAETPGIIDKHQ
notes: Hal3 (Sis2), S. cerevisiae, the entire Hal3, second MCS of pETDuet-1; also called Sis2; untagged version of Hal3; source: E. coli BL21 (DE3), co-expressed with 6 × His-Ppz1^Cter from pETDuet-1; purified as the complex (Ni2+ IMAC, SEC)
stoichiometry N (6 × His-Ppz1^Cter): ~1

B5: Cab3^PD (untagged) (domain or fragment, S. cerevisiae, UniProt P36076 305-508, looked up)
chain: DDKKFHILIGATGSVATIKVPLIIDKLFKIYGPEKISIQLIVTKPAEHFLKGLKMSTHVKIWREEDAWVFDAVNKNDTSLSLNLILHHELRKWADIFLIAPLSANTLAKLANGICNNLLTSVMRDWSPLTPVLIAPAMNTFMYINPMTKKHLTSLVQDYPFIQVLKPVEKVLICGDIGMGGMREWTDIVEIVRRRINEIRKARD
notes: Cab3 (previously Ykl088w), S. cerevisiae, PPCDC domain (PD), residues 305–508; Expected MW 23.3 kDa; could not be made on its own; also called PPCDC domain of Cab3; Ykl088w PD; source: E. coli BL21 (DE3), co-expressed from the second MCS of pETDuet-1 with 6 × His-Hal3^PD and/or 6 × His-Vhs3^PD; co-purified (Ni2+ IMAC)
ratio of Vhs3^PD to Cab3^PD in the co-purified binary mixture (6 × His-Vhs3^PD): ≥ 2 fold | ratio of Vhs3^PD to Cab3^PD in the co-purified ternary mixture (6 × His-Vhs3^PD): ~1 | ratio of Hal3^PD to Cab3^PD in the co-purified binary mixture (6 × His-Hal3^PD): ≥ 2 fold | ratio of Hal3^PD to Cab3^PD in the co-purified ternary mixture (6 × His-Hal3^PD): ~2
